Values joined by “and” are separate entries in the source; they are usually repeats but may differ in a detail not shown here. Equal values may be shown once.
B1: StrepII-tagged HypC (natural protein, E. coli, UniProt P0AAM3 2-90, looked up)
chain: CIGVPGQIRTIDGNQAKVDVCGIQRDVDLTLVGSCDENGQPRVGQWVLVHVGFAMSVINEAEARDTLDALQNMFDVEPDVGALLYGEEK
modifications: mixed population: unmodified species and species with +26 Da, +28 Da (CO or formyl), +16 Da (oxidation) and +136 Da (proposed Fe(CN)2CO) modifications, all associated with or dependent on the N-terminal cysteine residue (Cys2)
notes: HypC, hydrogenase maturation factor of Escherichia coli; lacks M1 (formyl-methionine lost after translation), so that Cys2 is the N-terminal residue; deconvoluted mass with the StrepII tag 10,641.5 Da; also called HypCStrep; StrepII-HypC; source: purified anoxically (StrepTactin Sepharose, when required Q-Sepharose); not shown: StrepII, C-terminal, kept
B2: HypD (natural protein, E. coli, UniProt P24192 1-373, looked up)
chain: MRFVDEYRAPEQVMQLIEHLRERASHLSYTAERPLRIMEVCGGHTHAIFKFGLDQLLPENVEFIHGPGCPVCVLPMGRIDTCVEIASHPEVIFCTFGDAMRVPGKQGSLLQAKARGADVRIVYSPMDALKLAQENPTRKVVFFGLGFETTMPTTAITLQQAKARDVQNFYFFCQHITLIPTLRSLLEQPDNGIDAFLAPGHVSMVIGTDAYNFIASDFHRPLVVAGFEPLDLLQGVVMLVQQKIAAHSKVENQYRRVVPDAGNLLAQQAIADVFCVNGDSEWRGLGVIESSGVHLTPDYQRFDAEAHFRPAPQQVCDDPRARCGEVLTGKCKPHQCPLFGNTCNPQTAFGALMVSSEGACAAWYQYRQQESEA
notes: HypD, hydrogenase maturation factor of Escherichia coli; printed mass 41,363.4 Da without and 41,715 Da with the [4Fe-4S] cluster; Carries a [4Fe-4S] cluster in all isolated complexes; No tag is named for HypD; also called native HypD; source: co-purified anoxically with it (StrepTactin Sepharose, when required Q-Sepharose)

Experiments:
HypD [1] = molecular target: B2; experiment: pull-down; StrepII-tagged HypC co-produced with HypD in E. coli strains with defects in iron metabolism; anoxic StrepTactin Sepharose affinity purification; SDS-PAGE with Coomassie staining and western blots with antisera against HypD and HypC; settings: partners not purified
StrepII-tagged HypC = molecular target: B1; experiment: native MS; anaerobically isolated StrepII-tagged HypC-HypD complexes, about 10 μM, 500 mM ammonium acetate pH 6.8, nano-ESI High-Mass Q-TOF II, collision energy 30 V (90 V for CID dissociation); complexes from DHP-D, ΔsufA, ΔiscU and ΔentC-ΔfeoB strains; settings: both partners purified
HypD [2] = molecular target: B2; experiment: as above; settings: both partners purified

B1
binding result (HypD [1]): binds

B2
stoichiometry N (StrepII-tagged HypC): 1 HypC:HypD | stoichiometry of a minor complex species (StrepII-tagged HypC): 2 HypC:HypD (2:1) and 1 HypC:HypD (2:2)

B3: StrepII-tagged HypC(C2A) (natural protein, E. coli, UniProt P0AAM3 2-90, looked up)
chain: AIGVPGQIRTIDGNQAKVDVCGIQRDVDLTLVGSCDENGQPRVGQWVLVHVGFAMSVINEAEARDTLDALQNMFDVEPDVGALLYGEEK
notes: HypC of Escherichia coli with the exchange C2A (codon 2 TGC to GCG); single major species, deconvoluted mass 10,611 Da, without the modifications seen on native HypC; lacking M1 as native HypC; also called StrepII-HypCC2A; source: E. coli DHP-D (ΔhypD) carrying pT-hypDC(C2A)Strep, co-produced with HypD; purified anoxically (StrepTactin Sepharose); not shown: StrepII, C-terminal, kept
binding result (HypD [2]): binds
